Test results reported in the Human Domainome abundance scans (Beltran et al. 2025).

B1: SWI/SNF complex subunit SMARCC2, residues 599 to 641; numbered along this chain, Q8TAQ2 (parent)
chain: REWTEQETLLLLEALEMYKDDWNKVSEHVGSRTQDECILHFLR

Variants of: B1
Test: abundance fitness (aPCA) (normalised: wild type 0, dead -1); higher = more abundant; growth selection in yeast, the domain comes from the species named
Conditions: Homo sapiens

Abundance fitness: each site, then its substitutions
L12: K 0.204, S -0.169, W -0.145, C -0.351
L15: V 0.336, D 0.232, C 0.087, E 0.241, R 0.454, G -0.067, K 0.586, W 0.04, F -0.211, Y 0.278, N -0.017, T 0.301, H 0.551, A 0.409, M 0.436
E13: A -0.028, L -0.598, R -0.172, G -0.215, M -0.222, I -0.742, N -0.415, H -0.264, Q -0.34, V -0.469, S -0.304, T -0.181, F -0.887, W -0.697, D -0.182
D21: A -0.172, M -0.747, P -0.919, W -0.493, K -0.065, Q -0.122, Y -0.541, T -0.336, S -0.057, V -0.496, N -0.314, R -0.192, E -0.158, H -0.408, G -0.315
Q6: C -0.394, D -0.133, T -0.191, P 0.026, F -0.211, N 0.046, G 0.002, K -0.167, V -0.117, R -0.003, A 0.117, M 0.144, H -0.282, Y -0.206, E -0.485, W -0.025, I -0.04, S -0.015, L -0.116
L11: D -0.801, A -0.364, W -0.619, S -0.788, H -0.457, T -0.412, I -0.564, Q -0.556, P -1.19, M -0.357, R -0.635, C -0.17, N -0.575, K -0.588, E -0.628
E5: N -0.362, A -0.227, T 0.004, S -0.506, P -0.39, D -0.692, M -0.026, F -0.347, Y 0.116, C -0.104, L -0.442, H -0.153, R -0.339, W -0.201, I -0.178, Q 0.164, V -0.189
D20: S 0.027, F -0.357, T -0.412, N -0.031, W -0.237, G 0.005, Y -0.072, C -0.15, Q 0.244, M -0.361, I -0.777, R 0.289, K 0.054, L -0.448, A -0.181, P 0.055
M17: Q 0.013, Y -0.084, R 0.118, V -0.017, T -0.054, G -0.154, S -0.167, N 0.027, D -0.035, L 0.052, K 0.077, A -0.224, W -0.118, P -0.501, C -0.283, H -0.348
R1: V 0.316, E 0.251, D 0.232, M 0.298, I 0.382, Q 0.526, C 0.225, L 0.094, K 0.35, T 0.287, H -0.26, P -0.025, G 0.142, F 0.36, Y 0.033
E7: W -1.27, R -0.887, N -0.948, L -0.833, A -0.448, T -0.745, Q 0.1, F -1.44, G -0.756, D -0.557, V -0.815, P -0.804, Y -1.26, K -0.921
T8: G 0.156, K 0.075, I 0.046, W -0.205, D -0.177, A 0.109, R 0.354, N 0.287, H 0.291, C -0.006, E 0.099, P -0.843, M 0.124, V 0.02, Q 0.316, L -0.001, F -0.224, S -0.102
T4: I 0.029, Y -0.307, E -0.042, C -0.705, W -0.623, N 0.18, F -0.32, G -0.794, L -0.247, R -0.305, A -0.309, D -0.608, S 0.056, V -0.552, M 0.142
W3: T -0.202, G -0.424, D 0.1, P -0.045, E -0.431, S -0.317, A -0.539, Q -0.247, V -0.203, I -0.275, N -0.226, L -0.168, M -0.181, C -0.518, K 0.681, H -0.058, Y -0.354
L9: I 0.11, V -0.023, W -0.118, Q 0.271, F -0.16, K 0.308, A 0.142, H 0.247, S 0.144, G 0.147, C 0.134, N 0.099, R 0.168, T 0.243, E -0.016, D -0.093, Y -0.024, P -0.307, M 0.2
K19: D -0.143, P -0.052, I -0.303, F -0.151, G -0.235, Y -0.427, N 0.29, R -0.115, T -0.003, H -0.272, W -0.526, C -0.314, L -0.458, S -0.287, M -0.332, A -0.26, V -0.256, E 0.019
E2: A 0.077, F -0.463, T 0.414, L 0.21, K 0.344, V 0.247, H 0.287, Q 0.403, D 0.56, N 0.317, M 0.135, Y 0.42, R 0.165, C -0.52, P 0.278, G 0.184, S 0.37
Y18: T -0.383, R -0.626, A -0.375, C -0.501, N -0.003, M -0.48, G -0.163, S -0.286, P -0.637, W -0.093, I -0.152, V -0.419, D -0.283, Q -0.478, L -0.731, H 0.106, F -0.417
A14: S -0.181, V -1.08, C -0.804, E -0.776, H -1.05, L -0.778, N -0.57, Q -0.797, G 0.062, M -0.991, W -1.39, D -0.806, F -1.05, T -0.864, K -0.844, P -0.987, R -0.741
E16: H -0.294, G -0.152, I -0.759, V -0.501, Q -0.186, K -0.059, L -0.698, F -0.372, P -0.018, M -0.439, T -0.091, S -0.301, Y -0.54, R 0.062
W22: C -0.792, A -0.791
L10: N -0.195, D -0.224, I -0.35, R -0.208, S -0.009, M 0.03, A -0.424, Y -0.024, G -0.171, H -0.115, K 0.028, T -0.226, Q -0.018, P -0.422, E 0.346, W -0.325, V 0.029, F -0.27, C -0.057
